Changes are numbered by the printed parent chain.
B1: OMA VH15 - VL3S31H (antibody, V domains shown)
VH: EVQLVESGGGLVQPGGSLRLSCAVSGYSITSGHRWEWIRQAPGKGLEWVASIHYDGSTNYNPSVKGRITISRDDSKNTFYLQMNSLRAEDTAVYYCARATHYFGHWHFAVWGQGTLVTVSS
VL: DIQLTQSPSSLSASVGDRVTITCRASQSVDYDGDHYMNWYQQKPGKAPKLLIEWGSYLRSGVPSRFSGSGSGTDFTLTISSLQPEDFATYYCQQNAEDPYTFGQGTKVEIK
B2: OmaVH15G55HW100b - VL3S31H (antibody, V domains shown)
VH: B1 VH with G56H, W106H
VL: B1 VL
B3: OmaVH15G55H - VL3D28HS31H (antibody, V domains shown)
VH: B1 VH with G56H
VL: B1 VL with D32H
B4: OmaVH15G55H - VL3 (antibody, V domains shown)
VH: B1 VH with G56H
VL: B1 VL with H35S
B5: OmaVH15G55HW100b - VL3 (antibody, V domains shown)
VH: B1 VH with G56H, W106H
VL: B1 VL with H35S
B6: OMA VH15 - VL3D28HS31H (antibody, V domains shown)
VH: B1 VH
VL: B1 VL with D32H
B7: OMA VH15 - VL3D28H (antibody, V domains shown)
VH: B1 VH
VL: B1 VL with D32H, H35S
notes: also called OMA VH15 VL3D25H
B8: OmaVH15G55H - VL3D28H (antibody, V domains shown)
VH: B1 VH with G56H
VL: B1 VL with D32H, H35S
notes: also called OmaVH15G55H VL3D25H
B9: Oma VH15W100b - VL3S31H (antibody, V domains shown)
VH: B1 VH with W106H
VL: B1 VL
B10: Oma VH15W100b - VL3D28H (antibody, V domains shown)
VH: B1 VH with W106H
VL: B1 VL with D32H, H35S
notes: also called Oma VH15W100b VL3D25H
B11: Oma VH15W100b - VL3D28HS31H (antibody, V domains shown)
VH: B1 VH with W106H
VL: B1 VL with D32H
B12: OmaVH15G55H - VL3S31H (antibody, V domains shown)
VH: B1 VH with G56H
VL: B1 VL
B13: Oma VH15W100b - VL3 (antibody, V domains shown)
VH: B1 VH with W106H
VL: B1 VL with H35S
B14: OMA VH15 - VL3 (antibody, V domains shown)
VH: B1 VH
VL: B1 VL with H35S
B15: OmaVH15G55HW100b - VL3D28HS31H (antibody, V domains shown)
VH: B1 VH with G56H, W106H
VL: B1 VL with D32H
notes: human IgG1

Each binder was assayed against T1, human immunoglobulin E (hIgE) (human, UniProt P01854-1 1-428) (assay: SPR (Biacore)).
T1 construct: also called human IgE; Native IgE (Abcam)
T1 sequence (P01854 whole entry): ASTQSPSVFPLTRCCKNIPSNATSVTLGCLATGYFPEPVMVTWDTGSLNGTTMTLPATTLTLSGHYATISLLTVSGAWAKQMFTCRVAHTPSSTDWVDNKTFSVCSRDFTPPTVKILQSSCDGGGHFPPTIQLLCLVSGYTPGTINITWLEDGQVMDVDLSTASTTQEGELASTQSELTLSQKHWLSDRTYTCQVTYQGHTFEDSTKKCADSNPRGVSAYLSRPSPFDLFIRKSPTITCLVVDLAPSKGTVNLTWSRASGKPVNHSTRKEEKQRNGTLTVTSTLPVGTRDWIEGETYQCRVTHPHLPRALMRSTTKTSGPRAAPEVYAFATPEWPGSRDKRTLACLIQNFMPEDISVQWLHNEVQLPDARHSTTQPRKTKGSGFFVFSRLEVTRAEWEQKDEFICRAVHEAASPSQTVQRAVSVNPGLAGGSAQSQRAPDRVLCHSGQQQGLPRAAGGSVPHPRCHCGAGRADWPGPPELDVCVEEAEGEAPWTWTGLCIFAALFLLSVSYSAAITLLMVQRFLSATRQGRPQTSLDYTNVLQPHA
B1 was tested, and the “Ratio pH 7.4/pH6.0 (of KD)” value was 16.7. With B2 the “Ratio pH 7.4/pH6.0 (of KD)” value was 20.3. For B3, the “Ratio pH 7.4/pH6.0 (of KD)” value was 6.4. In the case of B4, the “Ratio pH 7.4/pH6.0 (of KD)” value is reported as 5.6. B5 was tested, and the “Ratio pH 7.4/pH6.0 (of KD)” value was 17.2. For B6, the “Ratio pH 7.4/pH6.0 (of KD)” value was 11.7. B7 was tested, and the “Ratio pH 7.4/pH6.0 (of KD)” value was 15.6. For B8, the “Ratio pH 7.4/pH6.0 (of KD)” value was 6. In the case of B9, the “Ratio pH 7.4/pH6.0 (of KD)” value is reported as 31.1. For B10, the “Ratio pH 7.4/pH6.0 (of KD)” value was 7.5. B11 was tested, and the “Ratio pH 7.4/pH6.0 (of KD)” value was 23.5. B12 was tested, and the “Ratio pH 7.4/pH6.0 (of KD)” value was 6.8. B13 was tested, and the “Ratio pH 7.4/pH6.0 (of KD)” value was 10.2.

Each binder was assayed against T2, recombinant Motavizumab human IgE (rMota-hIgE) (human, UniProt P01854 1-428) (assay: hIgE binding ELISA).
T2 construct: also called Recombinant IgE (argenx)
T2 sequence (P01854 other isoform, or with tags, fused parts or gaps limits assumed, form in doubt): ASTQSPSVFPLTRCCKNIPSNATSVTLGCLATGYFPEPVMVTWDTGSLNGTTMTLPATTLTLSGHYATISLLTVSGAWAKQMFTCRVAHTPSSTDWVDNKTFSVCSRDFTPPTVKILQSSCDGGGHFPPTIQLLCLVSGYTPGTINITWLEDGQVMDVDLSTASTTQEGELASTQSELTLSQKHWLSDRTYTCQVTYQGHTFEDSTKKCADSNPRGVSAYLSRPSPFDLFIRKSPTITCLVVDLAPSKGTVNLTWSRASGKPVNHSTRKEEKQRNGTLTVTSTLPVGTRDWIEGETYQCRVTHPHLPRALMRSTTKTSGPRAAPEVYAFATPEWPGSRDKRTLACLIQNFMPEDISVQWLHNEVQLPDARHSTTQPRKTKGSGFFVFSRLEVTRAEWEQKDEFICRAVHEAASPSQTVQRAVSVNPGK
Method: (§1) Briefly a Maxisorp plate was coated with recombinant human respiratory syncytial virus protein F (RSV-F) (0.5 μg/mL), then blocked with PBS with 3% BSA and 0.05% Tween. […] After several washing steps at pH 7.4 or pH 5.5, detection of the bound mAbs was carried out with an anti-human Fc-HRP antibody.
For B14, the “Ratio EC50 pH 5.5/7.4” value was 1.1 and the “Ratio EC50 pH 7.4/5.5” value was 0.93. B1 was tested, and the “Ratio EC50 pH 5.5/7.4” value was 0.9 and the “Ratio EC50 pH 7.4/5.5” value was 1.12. With B3 the “Ratio EC50 pH 5.5/7.4” value was 1.5 and the “Ratio EC50 pH 7.4/5.5” value was 0.67. In the case of B4, the “Ratio EC50 pH 5.5/7.4” value is reported as 0.9 and the “Ratio EC50 pH 7.4/5.5” value is reported as 1.16. B5 was tested, and the “Ratio EC50 pH 5.5/7.4” value was 13.5 and the “Ratio EC50 pH 7.4/5.5” value was 0.07. B6 was tested, and the “Ratio EC50 pH 5.5/7.4” value was 1.2 and the “Ratio EC50 pH 7.4/5.5” value was 0.86. In the case of B7, the “Ratio EC50 pH 5.5/7.4” value is reported as 1 and the “Ratio EC50 pH 7.4/5.5” value is reported as 0.99. With B8 the “Ratio EC50 pH 5.5/7.4” value was 0.9 and the “Ratio EC50 pH 7.4/5.5” value was 1.05. For B12, the “Ratio EC50 pH 5.5/7.4” value was 1.5 and the “Ratio EC50 pH 7.4/5.5” value was 0.67. For B13, the “Ratio EC50 pH 5.5/7.4” value was 1.9 and the “Ratio EC50 pH 7.4/5.5” value was 0.53.

These binders were tested against T1, human immunoglobulin E (hIgE) (assay: SPR (Biacore), pH 6.0).
B14 was tested, and the Kd was 1.03 nM, the koff was 0.00029 s⁻¹ and the kon was 281000 M⁻¹ s⁻¹. In the case of B1, the Kd is reported as 8.93 nM, the koff is reported as 0.00228 s⁻¹ and the kon is reported as 261000 M⁻¹ s⁻¹. With B2 the Kd was 312 nM, the koff was 0.0986 s⁻¹ and the kon was 243000 M⁻¹ s⁻¹. B3 was tested, and the Kd was 16.1 nM, the koff was 0.00527 s⁻¹ and the kon was 326000 M⁻¹ s⁻¹. Work on B4 yielded a Kd of 1.8 nM, a koff of 0.000524 s⁻¹ and a kon of 291000 M⁻¹ s⁻¹. For B5, the Kd was 150 nM, the koff was 0.0254 s⁻¹ and the kon was 170000 M⁻¹ s⁻¹. B6 was tested, and the Kd was 12.8 nM, the koff was 0.00398 s⁻¹ and the kon was 310000 M⁻¹ s⁻¹. For B7, the Kd was 2.62 nM, the koff was 0.000736 s⁻¹ and the kon was 281000 M⁻¹ s⁻¹. B8 was tested, and the Kd was 4.39 nM, the koff was 0.00117 s⁻¹ and the kon was 265000 M⁻¹ s⁻¹. Work on B9 yielded a Kd of 190 nM, a koff of 0.0375 s⁻¹ and a kon of 206000 M⁻¹ s⁻¹. Binder B10 has a Kd of 64.5 nM, a koff of 0.0148 s⁻¹ and a kon of 232000 M⁻¹ s⁻¹. B11 gave a Kd of 206 nM, a koff of 0.0895 s⁻¹ and a kon of 453000 M⁻¹ s⁻¹. Work on B12 yielded a Kd of 9.07 nM, a koff of 0.00297 s⁻¹ and a kon of 329000 M⁻¹ s⁻¹. With B13 the Kd was 29.8 nM, the koff was 0.00875 s⁻¹ and the kon was 294000 M⁻¹ s⁻¹.

Each binder was assayed against T1, human immunoglobulin E (hIgE) (assay: SPR (Biacore), pH 7.4).
B14 was tested, and the Kd was less than 0.0769 nM, the koff was less than 1e-05 s⁻¹ and the kon was 130000 M⁻¹ s⁻¹. Binder B1 has a Kd of 0.534 nM, a koff of 0.000166 s⁻¹ and a kon of 310000 M⁻¹ s⁻¹. In the case of B2, the Kd is reported as 15.4 nM, the koff is reported as 0.00391 s⁻¹ and the kon is reported as 253000 M⁻¹ s⁻¹. B15 was tested, and the koff was 0.00356 s⁻¹. With B3 the Kd was 2.52 nM, the koff was 0.000722 s⁻¹ and the kon was 286000 M⁻¹ s⁻¹. B4 was tested, and the Kd was 0.326 nM, the koff was 0.000105 s⁻¹ and the kon was 323000 M⁻¹ s⁻¹. B5 showed a Kd of 8.69 nM, a koff of 0.00226 s⁻¹ and a kon of 261000 M⁻¹ s⁻¹. B6 was tested, and the Kd was 1.1 nM, the koff was 0.000334 s⁻¹ and the kon was 302000 M⁻¹ s⁻¹. In the case of B7, the Kd is reported as 0.168 nM, the koff is reported as 4.41e-05 s⁻¹ and the kon is reported as 264000 M⁻¹ s⁻¹. In the case of B8, the Kd is reported as 0.728 nM, the koff is reported as 0.000206 s⁻¹ and the kon is reported as 283000 M⁻¹ s⁻¹. For B9, the Kd was 6.12 nM, the koff was 0.00244 s⁻¹ and the kon was 398000 M⁻¹ s⁻¹. B10 showed a Kd of 8.59 nM, a koff of 0.00182 s⁻¹ and a kon of 213000 M⁻¹ s⁻¹. B11 showed a Kd of 8.78 nM, a koff of 0.00251 s⁻¹ and a kon of 290000 M⁻¹ s⁻¹. For B12, the Kd was 1.33 nM, the koff was 0.000402 s⁻¹ and the kon was 301000 M⁻¹ s⁻¹. B13 gave a Kd of 2.93 nM, a koff of 0.00103 s⁻¹ and a kon of 351000 M⁻¹ s⁻¹.

What follows are binders tested against T2, recombinant Motavizumab human IgE … (assay: hIgE binding ELISA, pH 5.5).
Method: as §1
B14 showed an EC50 of 0.0217 µg/mL. B1 showed an EC50 of 0.0179 µg/mL. For B3, the EC50 was 0.023 µg/mL. In the case of B4, the EC50 is reported as 0.022 µg/mL. B5 was tested, and the EC50 was 0.221 µg/mL. Binder B6 has an EC50 of 0.0178 µg/mL. B7 showed an EC50 of 0.0164 µg/mL. Binder B8 has an EC50 of 0.0251 µg/mL. With B12 the EC50 was 0.023 µg/mL. Binder B13 has an EC50 of 0.0326 µg/mL.

The binders below were run against T2, recombinant Motavizumab human IgE … (assay: hIgE binding ELISA, pH 7.4).
Method: as §1
For B14, the EC50 was 0.0202 µg/mL. B1 showed an EC50 of 0.02 µg/mL. In the case of B2, the EC50 is reported as 0.0191 µg/mL. Work on B3 yielded an EC50 of 0.0154 µg/mL. B4 showed an EC50 of 0.0255 µg/mL. Binder B5 has an EC50 of 0.0164 µg/mL. B6 showed an EC50 of 0.0153 µg/mL. Binder B7 has an EC50 of 0.0163 µg/mL. For B8, the EC50 was 0.0264 µg/mL. In the case of B9, the EC50 is reported as 0.0152 µg/mL. B10 was tested, and the EC50 was 0.015 µg/mL. B11 showed an EC50 of 0.0156 µg/mL. In the case of B12, the EC50 is reported as 0.0153 µg/mL. With B13 the EC50 was 0.0174 µg/mL.

These binders were tested against T1, human immunoglobulin E (hIgE) (assay: competition ELISA, hIgE to hFcεRIα).
B14 was tested, and the IC50 was 0.0803 nM. For B1, the IC50 was 0.206 nM. B2 showed an IC50 of 446 nM. With B15 the IC50 was 9.49 nM. Work on B3 yielded an IC50 of 2.63 nM. Work on B4 yielded an IC50 of 0.0753 nM. For B5, the IC50 was 23.2 nM. With B6 the IC50 was 0.722 nM. In the case of B7, the IC50 is reported as 0.137 nM. B8 was tested, and the IC50 was 0.187 nM. In the case of B10, the IC50 is reported as 35 nM. B11 was tested, and the IC50 was 585 nM. With B12 the IC50 was 0.485 nM. With B13 the IC50 was 1.4 nM.

Reference: patent US20220177604A1 (ARGENX, published 2022)
